The test system of series [1] is C=C(O[C@@H]1C=C(C(=O)O)C=C[C@H]1O)C(=O)O. The series can be described thus: purified protein. Particulars: 32°C, 40–75 nM enzyme, 0.1 mg/ml bovine serum albumin. The format is biochemical, Salmonella enterica.
In series [2] the target is T1, *AatIβ (periplasmic aromatic aminotransferase) (Pseudomonas aeruginosa, UniProt Q9I0V2).
T1 sequence (Q9I0V2 29-374): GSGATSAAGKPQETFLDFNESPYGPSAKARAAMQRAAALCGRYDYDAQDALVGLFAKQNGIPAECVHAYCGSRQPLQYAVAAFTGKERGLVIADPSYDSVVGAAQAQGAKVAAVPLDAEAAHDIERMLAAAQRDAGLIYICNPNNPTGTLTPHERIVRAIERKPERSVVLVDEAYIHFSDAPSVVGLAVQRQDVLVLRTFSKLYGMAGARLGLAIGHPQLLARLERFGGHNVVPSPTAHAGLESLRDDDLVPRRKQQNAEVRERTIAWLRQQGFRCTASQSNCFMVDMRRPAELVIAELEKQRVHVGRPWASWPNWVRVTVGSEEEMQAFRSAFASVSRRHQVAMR
As to the kind of experiment: aromatic aminotransferase activity assay. The note with it: activity followed through purification. The format is biochemical.

In series [3] the test system is C=C(O[C@@H]1C=C(C(=O)O)C=C[C@H]1O)C(=O)O. As to the kind of experiment: purified protein. Type of series: biochemical, Pantoea agglomerans. Particulars: 32°C, 40–75 nM enzyme, 0.1 mg/ml bovine serum albumin.
Substrate in series [4]: C=C(O[C@@H]1C=C(C(=O)O)C=C[C@H]1O)C(=O)O
The series can be described thus: purified protein. Type of series: biochemical, Pseudomonas aeruginosa. Particulars: 32°C, 40–75 nM enzyme, 0.1 mg/ml bovine serum albumin.

For orientation: Km means the substrate concentration at which the rate is half of its maximum. What is called kcat is the number of substrate molecules converted per active site and unit of time at saturation. Take “*AroQ (Salmonella typhimurium periplasmic chorismate mutase) (Salmonella enterica subsp. enterica serovar Typhimurium)”: in series [1], the Michaelis constant (Km) was found to be 142 µM and the kcat was found to be 8.9 s⁻¹.

On to `N[C@@H](Cc1ccccc1)C(=O)O` [phenylalanine], for which the “aromatic aminotransferase activity assay” value in series [2] (co-substrate α-ketoglutarate) is “phenylalanine and α-ketoglutarate were used as the substrates, unless indicated otherwise”.

Regarding “*AroQ (Erwinia herbicola periplasmic chorismate mutase) (Pantoea agglomerans)”, in series [3], the Michaelis constant (Km) stood at 169 µM and the kcat amounted to 9.7 s⁻¹.

`O=C(O)CCC(=O)C(=O)O` [α-ketoglutarate]: the “aromatic aminotransferase activity assay” value in series [2] (co-substrate phenylalanine) was “phenylalanine and α-ketoglutarate were used as the substrates, unless indicated otherwise”.

B1: *AroQ (Pseudomonas aeruginosa periplasmic chorismate mutase) (Pseudomonas aeruginosa PAO1) (protein)
chain: QPLSPALQQLLSLSSQRLQLADQVAQSKAQSGKAVQDSPREEQQLQMLAGQAGSHGVGAEQVRLLFAAQIEANKLVQYRLLSRPLPDAGQAVDLERIRSRLNQLNLELLRGYAPALAELRVDDCRPRLNQALQRQVRVDRLDELHAIALSRAAGDLCHWAEL
On to B1, for which the kcat in series [4] is 6.4 s⁻¹.

The values above are taken from PMC55327 (Genome Biology, 2001).
